Results reported in paper PMC2572620, “The Mycoplasma pneumoniae MPN229 gene encodes a protein that selectively binds single-stranded DNA and stimulates Recombinase A-mediated DNA strand exchange” (BMC Microbiology, 2008).

Target: the molecule itself
Test: SEC; Sephadex G-150 column; 500 ul of untagged Mpn SSB at 0.3 mg/ml in 50 mM Tris-HCl pH 7.5, 135 mM NaCl; calibrated with BSA, ovalbumin and cytochrome C; fractions analysed by SDS-PAGE

B1: Mpn single-stranded DNA-binding protein (Mpn SSB), natural non-tagged form (natural protein, Mycoplasma pneumoniae, UniProt P75542 1-166, looked up)
chain: MNRVFLFGKLSFDPNKLQTRTNNIGASFSLACIDSSGFNDSKSYIRITAWGKVASFVLTLKPGDSVFVEGRLSTYKMNNRSDDPNSKATYALQVIADKVYRPDEENSLEQPVDKATVIDSPFLAAKTNATENELAQAFPISLDDEDDDINPILNNDSQLEEESDDE
notes: 166 amino acids, 18.4 kDa; ORF amplified from genomic DNA of strain MAC (ATCC 15492) with primers from the initiation codon to the termination codon; expressed in its natural, non-tagged form; Cloned from strain MAC; the genome entry for MPN229 is of strain M129; also called MPN229 protein product; M. pneumoniae SSB; source: E. coli BL21(DE3), pET-11c-MpnSSB, purified (ammonium sulphate …)
stoichiometry N: 4
